Data on 19 molecules can be found in patent US20260234738A1 (Regeneron, published 2026).

The target of assay [1] is Bt-SARS-CoV-2 Spike Protein (RBD) (R319-F541).mFc (SARS-CoV-2). Briefly: Luminex beads, supernatant.
Assay [2] concerns the target SARS-CoV-2 Spike Protein (RBD) (R319-F541).mFc (SARS-CoV-2). Put plainly: Luminex beads, supernatant.
Assay [3] addresses SARS-CoV-2 Spike Protein (RBD) (R319-F541).hFc (SARS-CoV-2). Put plainly: Luminex beads, supernatant.
Assay [4] addresses SARS-COV-2 spike protein receptor binding domain (amino acids Arg319 to Phe541) expressed with the F (SARS-CoV-2).

B1: mAb10965 (antibody, V domains shown)
VH: EVQLVESGGGLIQPGGSLRLSCAASVFTVSYNYMSWVRQAPGKGLEWVSVIYSGGSTYYADSVKGRFTISRDNSKNTLYLQMNSLRAEDTAVYYCARALPGWGGSFEYFDYWGQGTLVTVSS
VL: not shown
Turning to B1, the MFI in assay [1] was found to be 13700 MFI; in assay [2] it was 27100 MFI; in assay [3] it was 29600 MFI.

B2: mAb10964 (antibody, V domains shown)
VH: QVQLQESGPGLVKPSETLSLTCTVSGGSINNYYWIWIRQPPGKGLEWIGYIYHSGSTNYNPSLKSRVTISVDTSKNQFSLKVSSVTAADTAVYYCANMVRGVYEDDYWGQGTLVTVSS
VL: DIQMTQSPSSLSASVGDRVTITCRASQSISNYLNWYQQKPGKAPKLLIFAASSLRSGVPSRFSGSGSGTDFTLTISSLHPEDFATYYCQQNYNTPLTFGPGTKVDIKR
With B2, the MFI in assay [1] was determined as 19200 MFI; in assay [2] it was 32400 MFI; in assay [3] it was 33100 MFI.

B3: mAb10984 (antibody, V domains shown)
VH: EVQLVESGGGLVQPGGSLRLSCAASGLTVNRNYMSWVRQAPGKGLEWVSLIYSGGSTYYADSVKGRFTISRDNSKNTLYLQMNSLRLEDTAVYYCARGELGIPYGMDVWGQGTTVTVSS
VL: QSVLTQPPSVSAAPGQKVTISCSGSSSNIGNNYVSWYQQLPGTAPKLLIYDNNKRPSGIPDRFSGSKSGTSATLGITGLQTGDEADYYCGTWDSSLSAGVFGGGTKLTVLG
On to B3, for which the MFI in assay [1] was found to be 17100 MFI; in assay [2], 28400 MFI; in assay [3], 28400 MFI.

B4: mAb10967 (antibody, V domains shown)
VH: EVQLVESGGGLVQPGGSLRLSCAASGFTVSSNYMSWVRQAPGKGLEWVSVIYPGGSTFYADSVKGRFTISRDNSKNTLYLQMNSLRAEDTAVYYCARDQRDFAWGQGTLVTVSS
VL: DIQMTQSPSSLSASVGDRVTITCQASQDISNYLNWYQQKPGKAPKLLIYDASNLETGVPSRFSGSGSGTDFTFTISGLQPEDIATYYCQQYDNLPPTFGQGTRLEIKR
In the case of B4, the MFI in assay [1] came to 16800 MFI; in assay [2], 29600 MFI; in assay [3], 28700 MFI.

B5: mAb10955 (antibody, V domains shown)
VH: EVQLVESGGGLVQPGGSLRVSCAASGFTVSRNYMSWVRQAPGKGLEWVSVIYSGGSTFYADSVKGRFTISRDNSKNTLYLQMNSLRAEDTAIYYCARYIPRFDPWGQGTLVTVSS
VL: DIQMTQSPSSLSASVGDRVTITCQASQDISNYLNWFQQKPGRAPKLLIYDASNLETGVPSRFSGSGSGTDFTFTISSLQPEDIATYYCQQYDNLPITFGQGTRLEIKR
For B5, the figures for the MFI in assay [1], in assay [2] and in assay [3] were 16800 MFI, 30800 MFI and 31200 MFI, respectively.

B6: mAb10954 (antibody, V domains shown)
VH: EVQLVESGGGLVQPGGSLRLSCAASGITVSSNYMSWVRQAPGKGLEWVSLIYSGGSTYYADSVKGRFTISRDNSKNTLYLQMNSLRVEDTAVYYCARDHGMAAAGYNYWGQGTLVTVSS
VL: DIQMTQSPSSLSASVGDRVTITCQASQDINKYLNWYQQKPGKAPKLLIYDASNLETGVPSRFSGSGSGTDFTFTINSLQPEDFATYFCQQYDNLPPAFGQGTKVEIKR
Take B6: the MFI in assay [1] amounted to 18400 MFI; in assay [2], 31300 MFI; in assay [3], 31800 MFI.

B7: mAb10989 (antibody, V domains shown)
VH: QVQLVQSGAEVKKPGASVKVSCKASGYIFTGYYMHWVRQAPGQGLEWMGWINPNSGGANYAQKFQGRVTLTRDTSITTVYMELSRLRFDDTAVYYCARGSRYDWNQNNWFDPWGQGTLVTVSS
VL: QSALTQPASVSGSPGQSITISCTGTSSDVGTYNYVSWYQQHPGKAPKLMIFDVSNRPSGVSDRFSGSKSGNTASLTISGLQAEDEADYYCSSFTTSSTVVFGGGTKLTVLG
With B7, the MFI in assay [1] came out at 11200 MFI; in assay [2], 19600 MFI; in assay [3], 22400 MFI.

B8: mAb11002 (antibody, V domains shown)
VH: EVQLVESGGGLVQPGGSLRLSCAASGFTVSSNYMSWVRQAPGKGLEWVSVIYSGGSTFYADSVKGRFTISRHNSKNTLYLQMNSLRAEDTAVYYCAREGYGMDVWGQGTTVTVSS
VL: not shown
In general, Kd refers to the concentration at which binding is half-saturated. High values mean weaker binding, low ones tighter binding. As usually defined, the t½ is the time in which the quantity being followed falls by half. In assay [4], B8 had a dissociation constant Kd of 16.7 nM and a t½ of 2.6 min.

B9: mAb10982 (antibody, V domains shown)
VH: EVQLVESGGGLVQPGGSLRLSCAASGLTVSSNYMSWVRQAPGKGLEWVSVIYSGGTTYYADSVKGRFTISRHNSKNTLSLQMNSLRAEDTAVYYCARGEGANYYGMDVWGQGTTVTVSS
VL: QSVLTQPPSVSGAPGQRVTISCTGSSSNIGTGYDVHWYQQLPGTAPKLLIYGNSNRPSGVPDRFSGSKSGTSASLAITGLQAEDEADYYCQSYDSSLSGYVVFGGGTKLTVLG
Regarding B9, the MFI in assay [1] stood at 12300 MFI; in assay [2], 23300 MFI; in assay [3], 23000 MFI.

B10: mAb10985 (antibody, V domains shown)
VH: EVQLVESGGGLVQPGRSLRLSCAASGFTFDDYAMHWVRQAPGKGLEWVSGISWNRGSIGYADSVKGRFTISRDNAKNSLYLQMSSLRAEDTALYYCAKDGERWDSVVVPSARNGMDVWGQGTTVTVSS
VL: QSVLTQPPSVSGAPGQRVTISCTGSSSNIGAGYDVHWYQQLPGTAPKLLIYGNSNRPSGVPDRFSGSKSGTSASLAITGLQAEDEADYYCQSYDSSLSGSYVFGTGTKVTVLG
Consider B10, for which the MFI in assay [1] is 15500 MFI; in assay [2], 29400 MFI; in assay [3] it was 31100 MFI.

B11: mAb11004 (antibody, V domains shown)
VH: QVQLVESGGGVVQPGRSLRLSCVASGFTFSIYGMDWVRQAPGKGLEWVAVISYDGSNKYYADSVKGRFTISRDNSKNTLYLQMNSLRPEDTAVYYCAKDREAAADAFDIWGQGTMVTVSS
VL: DIQMTQSPSSVSASVGDRVTITCRASQGISSWLAWYQQKPGKAPKLLIYAASSLHSGVPSRFSGSGSGTDFTLTISSLQPEDFATYYCQQANSFRLTFGGGTKVEIK
In general, koff refers to the first-order rate constant of dissociation. A lower koff goes with slow dissociation. A word on the kon: it is the rate constant with which the complex forms. A high value points to fast association. Turning to B11, in assay [4], the Kd worked out at 0.191 nM, the koff was 6.63e-05 s⁻¹, the kon was 346000 M⁻¹ s⁻¹ and the t½ came to 174 min.

B12: mAb10966 (antibody, V domains shown)
VH: EVQLVESGGGLVQPGGSLRLSCAASGLTVSSNYMSWVRQAPGKGLEWVSVIYSGGSTFYADSVKGRFTISRDNSKNTLYLQMNSLRPEDTAVYYCAREGRIAATGYGMDVWGQGTTVTVSS
VL: not shown
B12: the MFI in assay [1] was determined as 17900 MFI; in assay [2], 30400 MFI; in assay [3], 30800 MFI.

B13: mAb10998 (antibody, V domains shown)
VH: EVQLVESGGGLVHPGGSLRLSCAASGLTVSSNYMSWVRQAPGKGLEWVSVIYSGGSTYYADSVKGRFTISRHNSKNTLFLQMNSLRAEDTAVYYCARDRPITGTTLDVWGQGTTVTVSS
VL: DIQMTQSPSSLFASVGDRVTITCRASQSISSYLNWYQQKPGKAPKLLIYAASSLQSGVPSRFSGSGSGTDFTLTISSLQPEDFAFYYCQQTYSTPPITFGQGTRLEIK
In assay [4], B13 gave a Kd of 1.58 nM, a koff of 0.000521 s⁻¹, a kon of 330000 M⁻¹ s⁻¹ and a t½ of 22.2 min.

B14: mAb11010 (antibody, V domains shown)
VH: QVQLVESGGGVVQPGRSLRLSCAASGFTFSSYGMHWVRQAPGKGLEWVAVISYDGSYKYYADSVKGRFTISRDNSKNTLYLQMNSLRAEDTAVYYCAIDGGTVTTIFDYWGQGTLVTVSS
VL: not shown
For B14, in assay [4], the dissociation constant Kd was ≤ 0.0236 nM and the t½ is ≥ 1160 min.

B15: mAb11006 (antibody, V domains shown)
VH: EVQLVESGGGLVQPGGSLRLSCAASGFIVSRNYMSWVRQAPGKGLEWVSVIYSGGSTFYADSVKGRFTISRHNSKNTLYLQMNSLKAEDTAVYYCARELRGYFDYWGQGTLVTVSS
VL: DIQLTQSPSFLSASVGDRVTITCWASQGISSYLAWYQQKPGKAPKLLIYAASTLQSGVPSRFSGSGSGTEFTLTISSLQPEDFATYYCQLLNSYPYTFGQGTKLEIK
For B15, in assay [4], the Kd is ≤ 0.0532 nM and the t½ was ≥ 1160 min.

B16: mAb11008 (antibody, V domains shown)
VH: EVQLVESGGGLVQPGGSLRLSCAASGFTVSSNYMTWVRQAPGKGLEWVSVIYSGGSTFYADSVKGRFTISRHNSENTLYLQMNSLRAEDTAVYYCARDLAAAGTDYWGQGALVTVSS
VL: DIQLTQSPSFLSASVGDRVTITCWASQGISSYLAWYQQKPGKAPKLLIYAASTLQSGVPSRFSGSGSGTEFTLTISSLQPDDFATYYCQHLNSYLYTFGQGTKLEIK
In assay [4], B16 had a Kd of 0.715 nM, a koff of 0.000115 s⁻¹, a kon of 161000 M⁻¹ s⁻¹ and a t½ of 100 min.

B17: mAb10971 (antibody, V domains shown)
VH: EVQLVESGGGLIQPGGSLRLSCAASGVTVSSNYMSWVRQAPGKGLEWVSVIYSGGSTFYSDSVKGRFSISRDNSKNTLYLQMNSLRAEDTAVYYCARDLYYYGMDVWGQGTTVTVSS
VL: DIQLTQSPSFLSASVGDRVTITCRASQGISTYLAWYQQKPGKAPKLLIYAASTLQSGVPSRFSGSGSGTEFTLTISSLQPEDFATYYCQQLDSYPGLTFGGGTKVEIKR
In the case of B17, the MFI in assay [1] is 16700 MFI; in assay [2], 28700 MFI; in assay [3], 30000 MFI.

B18: mAb10956 (antibody, V domains shown)
VH: EVQLVESGGGLVQPGGSLRLSCAASGLTVSSNYMSWVRQAPGKGLEWVSVIYSGGSTFYADSVKGRFTISRDNSKNTLYLQMNSLRAEDTAVYYCARDLIKYGMDVWGQGTTVTVSS
VL: not shown
On to B18, for which the values for the MFI in assay [1], in assay [2] and in assay [3] were 12900 MFI, 28300 MFI and 30200 MFI, respectively.

B19: mAb10957 (antibody, V domains shown)
VH: EVQLVESGGGLVQPGGSLRLSCAASGVTVSSNYMSWVRQAPGKGLEWVSVIYSGGSTFYADSVKGRFTISRDNSKNTLFLQMNSLRIEDTAVYYCARDLGPYGMDVWGQGTTVTVSS
VL: DIQLTQSPSFLSASVGDRVTITCRASQGISSYLAWYQQKPGKAPKLLIYAASTLQSGVPSRFSGSGSGTQFILTISSLQPEDFATYYCQQLNSYPGFTFGPGTKVDIKR
Take B19: the MFI in assay [1] amounted to 10600 MFI; in assay [2] it was 18700 MFI; in assay [3], 22600 MFI.
